Square brackets hold non-standard residues; d marks the D form. Ends that are not written are not given here. * marks the point of attachment. Trp(6-Br) = N[C@@H](Cc1c[nH]c2cc(Br)ccc12)C(=O)O; Trp(6-Cl) = N[C@@H](Cc1c[nH]c2cc(Cl)ccc12)C(=O)O; Trp(6-F) = N[C@@H](Cc1c[nH]c2cc(F)ccc12)C(=O)O; Trp(6-Me) = Cc1ccc2c(C[C@H](N)C(=O)O)c[nH]c2c1; hArg = N=C(N)NCCCC[C@H](N)C(=O)O; Pentanoyl = CCCCC(=O)*
Key:
[1] = biological target: T1, His-tagged, full-length PCSK9 (human, UniProt Q8NBP7 31-692); test: TR-FRET competition; His-PCSK9, competitor EGF(A)-Fc
T1 construct: The secreted protein is autocleaved into a prodomain and a catalytic/Cys-rich chain that starts at S153; also called His-PCSK9
T1 sequence (Q8NBP7 other isoform, or with tags, fused parts or gaps limits assumed): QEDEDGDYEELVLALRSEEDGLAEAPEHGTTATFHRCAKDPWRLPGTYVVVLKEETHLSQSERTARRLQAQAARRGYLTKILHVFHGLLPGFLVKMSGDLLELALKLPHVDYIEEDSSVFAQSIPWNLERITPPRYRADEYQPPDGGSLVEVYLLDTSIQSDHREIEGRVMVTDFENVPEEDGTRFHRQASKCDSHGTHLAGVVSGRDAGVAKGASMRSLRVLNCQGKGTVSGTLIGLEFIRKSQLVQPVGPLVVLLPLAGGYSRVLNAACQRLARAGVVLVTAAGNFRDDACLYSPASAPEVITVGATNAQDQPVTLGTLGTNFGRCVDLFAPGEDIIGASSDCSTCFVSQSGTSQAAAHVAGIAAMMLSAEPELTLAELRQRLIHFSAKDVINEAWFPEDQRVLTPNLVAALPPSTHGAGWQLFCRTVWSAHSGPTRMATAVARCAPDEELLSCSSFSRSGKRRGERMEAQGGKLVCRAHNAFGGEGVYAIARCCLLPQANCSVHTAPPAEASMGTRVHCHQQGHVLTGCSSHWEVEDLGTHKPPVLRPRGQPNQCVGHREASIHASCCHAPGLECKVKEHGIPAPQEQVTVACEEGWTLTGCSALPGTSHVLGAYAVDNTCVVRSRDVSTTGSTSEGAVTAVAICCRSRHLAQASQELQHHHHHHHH
Method: (§1) Signal generation in the PCSK9 binding assays was dependent upon the binding interaction to bring into close proximity the His-tag on the PCSK9 and the Fc-tag on the ligand. Anti-His-APC was bound to the His-tag, and anti-Fc-europium was bound to the Fc-tag.
(§2) Compounds were solubilized and dilutions were prepared in DMSO. […] The plate was centrifuged to mix the well contents and allowed to incubate for 30 min. […] The normalized TR-FRET ratios were plotted as a function of the compound concentrations, and the IC₅₀ values were determined using a 4-parameter logistic regression.

His-tagged PCSK9Δhelix = biological target: T2, His-tagged PCSK9Δhelix (human, UniProt Q8NBP7 31-152; Q8NBP7 168-692); test: TR-FRET competition; His-PCSK9Δhelix, competitor Ab20
T2 construct: Construct M1-Q692 with engineered TEV site, cut by TEV protease; new N-terminus of the catalytic domain is S-A168; also called His-PCSK9Δhelix
T2 sequence (Q8NBP7 31-152, stated change not applied, chain 1 of 2): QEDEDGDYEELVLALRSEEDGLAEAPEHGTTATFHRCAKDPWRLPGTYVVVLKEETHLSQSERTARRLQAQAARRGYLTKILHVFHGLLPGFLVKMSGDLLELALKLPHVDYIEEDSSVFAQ
T2 sequence (Q8NBP7 other isoform, or with tags, fused parts or gaps mutant, chain 2 of 2): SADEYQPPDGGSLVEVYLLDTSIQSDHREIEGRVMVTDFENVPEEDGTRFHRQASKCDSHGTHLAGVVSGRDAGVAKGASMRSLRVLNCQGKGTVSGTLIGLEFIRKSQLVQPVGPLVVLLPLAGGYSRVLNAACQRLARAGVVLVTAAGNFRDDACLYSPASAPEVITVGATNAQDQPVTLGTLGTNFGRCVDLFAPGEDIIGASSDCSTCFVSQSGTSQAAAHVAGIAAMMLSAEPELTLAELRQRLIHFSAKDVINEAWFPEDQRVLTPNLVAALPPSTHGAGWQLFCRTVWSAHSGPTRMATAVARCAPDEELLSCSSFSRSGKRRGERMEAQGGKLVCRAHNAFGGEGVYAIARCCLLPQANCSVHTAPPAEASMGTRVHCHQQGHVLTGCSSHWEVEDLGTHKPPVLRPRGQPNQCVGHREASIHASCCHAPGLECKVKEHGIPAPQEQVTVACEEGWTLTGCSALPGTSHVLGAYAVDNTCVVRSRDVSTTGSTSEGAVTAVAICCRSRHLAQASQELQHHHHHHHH
Method: as §1, §2

| Binder | IC50 [1] [µM] | IC50 (His-tagged PCSK9Δhelix) [µM] |
| --- | --- | --- |
| Ac-MDSFPGWNLVRIGLLR-NH2 [Compound 153] | 12 | 50 |
| Ac-SFAFPGWNLVRIGLLR-NH2 [Compound 154] | 11 | 50 |
| Ac-DSYPGWNLVRIGLLR-NH2 [Compound 155] | 11 | 50 |
| Ac-ESYPGWNLVRIGLLR-NH2 [Compound 156] | 11 | 50 |
| Ac-DLMPWNLKRIGLLR-NH2 [Compound 158] | ≥ 50 | 12 |
| Ac-DLMPWNLVRIGLPR-NH2 [Compound 160] | ≥ 50 | 19 |
| Pentanoyl-[Trp(6-F)]NLVRIGLTR-NH2 (SMILES CCCCC(=O)N[C@@H](Cc1c[nH]c2cc(F)ccc12)C(=O)N[C@@H](CC(N)=O)C(=O)N[C@@H](CC(C)C)C(=O)N[C@H](C(=O)N[C@@H](CCCNC(=N)N)C(=O)N[C@H](C(=O)NCC(=O)N[C@@H](CC(C)C)C(=O)N[C@H](C(=O)N[C@@H](CCCNC(=N)N)C(N)=O)[C@@H](C)O)[C@@H](C)CC)C(C)C) [Compound 174] | ≥ 50 | 6.2 |
| Pentanoyl-[Trp(6-Me)]NLVRIGLTR-NH2 (SMILES CCCCC(=O)N[C@@H](Cc1c[nH]c2cc(C)ccc12)C(=O)N[C@@H](CC(N)=O)C(=O)N[C@@H](CC(C)C)C(=O)N[C@H](C(=O)N[C@@H](CCCNC(=N)N)C(=O)N[C@H](C(=O)NCC(=O)N[C@@H](CC(C)C)C(=O)N[C@H](C(=O)N[C@@H](CCCNC(=N)N)C(N)=O)[C@@H](C)O)[C@@H](C)CC)C(C)C) [Compound 175] | ≥ 50 | 39 |
| Pentanoyl-[Trp(6-Cl)]NLVRIGLTR-NH2 (SMILES CCCCC(=O)N[C@@H](Cc1c[nH]c2cc(Cl)ccc12)C(=O)N[C@@H](CC(N)=O)C(=O)N[C@@H](CC(C)C)C(=O)N[C@H](C(=O)N[C@@H](CCCNC(=N)N)C(=O)N[C@H](C(=O)NCC(=O)N[C@@H](CC(C)C)C(=O)N[C@H](C(=O)N[C@@H](CCCNC(=N)N)C(N)=O)[C@@H](C)O)[C@@H](C)CC)C(C)C) [Compound 186] | 31 | 11 |
| Pentanoyl-[Trp(6-Br)]NLVRIGLTR-NH2 (SMILES CCCCC(=O)N[C@@H](Cc1c[nH]c2cc(Br)ccc12)C(=O)N[C@@H](CC(N)=O)C(=O)N[C@@H](CC(C)C)C(=O)N[C@H](C(=O)N[C@@H](CCCNC(=N)N)C(=O)N[C@H](C(=O)NCC(=O)N[C@@H](CC(C)C)C(=O)N[C@H](C(=O)N[C@@H](CCCNC(=N)N)C(N)=O)[C@@H](C)O)[C@@H](C)CC)C(C)C) [Compound 187] | 26 | 36 |
| Pentanoyl-WNLV[hArg]IGLLR-NH2 (also called n-BuC(O)-WNLV(homoR)IGLLR-NH2) [Compound 191] | ≥ 50 | 1.3 |
| Pentanoyl-WNLV[hArg]IGLTR-NH2 (SMILES CCCCC(=O)N[C@@H](Cc1c[nH]c2ccccc12)C(=O)N[C@@H](CC(N)=O)C(=O)N[C@@H](CC(C)C)C(=O)N[C@H](C(=O)N[C@@H](CCCCNC(=N)N)C(=O)N[C@H](C(=O)NCC(=O)N[C@@H](CC(C)C)C(=O)N[C@H](C(=O)N[C@@H](CCCNC(=N)N)C(N)=O)[C@@H](C)O)[C@@H](C)CC)C(C)C, also called n-BuC(O)-WNLV(homoR)IGLTR-NH2) [Compound 234] | ≥ 50 | 1.4 |
| Pentanoyl-WNLV[hArg]IGLTR (also called n-BuC(O)-WNLV(homoR)IGLTR) [Compound 235] | ≥ 50 | 2.7 |
| WNLV[hArg]IGLLQ-NH2 (N-terminus assumed; SMILES CC[C@H](C)[C@H](NC(=O)[C@H](CCCCNC(=N)N)NC(=O)[C@@H](NC(=O)[C@H](CC(C)C)NC(=O)[C@H](CC(N)=O)NC(=O)[C@@H](N)Cc1c[nH]c2ccccc12)C(C)C)C(=O)NCC(=O)N[C@@H](CC(C)C)C(=O)N[C@@H](CC(C)C)C(=O)N[C@@H](CCC(N)=O)C(N)=O, also called WNLV(homoR)IGLLQ-NH2) [Compound 237] | 8.8 | 0.33 |
| WNLV[hArg]IGLLN (also: further groups not given here, Structure printed only as a drawing) [Compound 238] | 7.7 | 0.33 |
| Ac-WNLV[hArg]IGLLR-NH2 (also called Ac-WNLV(homoR)IGLLR-NH2) [Compound 192] | ≥ 50 | 5.3 |
| WNLV[hArg]IGLLR (also: end groups and other groups only in drawing, Structure printed only as a drawing) [Compound 193] | ≥ 50 | 1.5 |
| WNLV[hArg]IGLLR (also: end groups and other groups only in drawing, Structure printed only as a drawing) [Compound 194] | ≥ 50 | 1.9 |
| WNLV[hArg]IGLLR (also: end groups and other groups only in drawing, Structure printed only as a drawing) [Compound 196] | 7.3 | 1.4 |

| Binder | IC50 [1] [µM] | IC50 (His-tagged PCSK9Δhelix) [µM] |
| --- | --- | --- |
| WNLV[hArg]IGLLR (also: end groups and other groups only in drawing, Structure printed only as a drawing) [Compound 197] | 0.97 | 0.09 |
| WNLV[hArg]IGLLR (also: end groups and other groups only in drawing, Structure printed only as a drawing) [Compound 198] | 1.7 | 0.25 |
| WNLV[hArg]IGLLR (also: end groups and other groups only in drawing, Structure printed only as a drawing) [Compound 199] | 0.98 | 0.2 |
| WNLV[hArg]IGLLR (also: end groups and other groups only in drawing, Structure printed only as a drawing) [Compound 200] | 3.2 | 0.67 |
| WNLV[hArg]IGLLR (also: end groups and other groups only in drawing, Structure printed only as a drawing) [Compound 201] | 3.9 | 1 |
| WNLV[hArg]IGLLR (also: end groups and other groups only in drawing, Structure printed only as a drawing) [Compound 202] | 2.6 | 0.34 |
| WNLV[hArg]IGLLR (also: end groups and other groups only in drawing, Structure printed only as a drawing) [Compound 203] | 21 | 1.6 |
| WNLV[hArg]IGLLR (also: further groups not given here, Structure printed only as a drawing) [Compound 204] | 3.6 | 0.87 |
| WNLV[hArg]IGLLR (also: end groups and other groups only in drawing, Structure printed only as a drawing) [Compound 205] | 2.8 | 0.64 |
| WNLV[hArg]IGLLR (also: further groups not given here, Structure printed only as a drawing) [Compound 206] | 1.8 | 0.87 |
| WNLV[hArg]IGLLR (also: further groups not given here, Structure printed only as a drawing) [Compound 207] | 1.3 | 0.32 |
| WNLV[hArg]IGLLR (also: further groups not given here, Structure printed only as a drawing) [Compound 208] | 0.45 | 0.1 |
| WNLV[hArg]IGLLR (also: further groups not given here, Structure printed only as a drawing) [Compound 209] | 2.9 | 0.45 |
| WNLV[hArg]IGLLR (also: further groups not given here, Structure printed only as a drawing) [Compound 210] | 3 | 0.84 |
| WNLV[hArg]IGLLR (also: further groups not given here, Structure printed only as a drawing) [Compound 211] | 14 | 3.8 |
| WNLV[hArg]IGLLR (also: further groups not given here, Structure printed only as a drawing) [Compound 212] | 15 | 1.6 |
| WNLV[hArg]IGLLR (also: further groups not given here, Structure printed only as a drawing) [Compound 213] | 3.8 | 0.2 |
| WNLV[hArg]IGLLR (also: further groups not given here, Structure printed only as a drawing) [Compound 214] | 3 | 0.21 |

— US20200283478A1 (Genentech, published 2020)
